Source: publication PMC5727386

What was measured:
[1] = target: Bcr-Abl DH domain (residues 487–702) (UniProt P11274); test: NMR titration; GTPase titrated to 50 μM 15N-labeled DH domain; 50 mM HEPES pH 7, 50 mM NaCl, 1 mM DTT, 1 mM imidazole, 2 mM EDTA; [15N,1H]-TROSY; about 10 peaks fitted to a 1:1 binding model, mean Kd
[2] = target: Tyrosine phosphatase Sts1 (UniProt Q8BGG7); test: co-immunoprecipitation (anti-Bcr-Abl/Abl IP, Sts1 immunoblot, quantified); settings: BaF3 cells stably transduced with the Bcr-Abl variants; parent: est. 1.0; read off a plot
Chain of Tyrosine phosphatase Sts1 (Q8BGG7 whole entry): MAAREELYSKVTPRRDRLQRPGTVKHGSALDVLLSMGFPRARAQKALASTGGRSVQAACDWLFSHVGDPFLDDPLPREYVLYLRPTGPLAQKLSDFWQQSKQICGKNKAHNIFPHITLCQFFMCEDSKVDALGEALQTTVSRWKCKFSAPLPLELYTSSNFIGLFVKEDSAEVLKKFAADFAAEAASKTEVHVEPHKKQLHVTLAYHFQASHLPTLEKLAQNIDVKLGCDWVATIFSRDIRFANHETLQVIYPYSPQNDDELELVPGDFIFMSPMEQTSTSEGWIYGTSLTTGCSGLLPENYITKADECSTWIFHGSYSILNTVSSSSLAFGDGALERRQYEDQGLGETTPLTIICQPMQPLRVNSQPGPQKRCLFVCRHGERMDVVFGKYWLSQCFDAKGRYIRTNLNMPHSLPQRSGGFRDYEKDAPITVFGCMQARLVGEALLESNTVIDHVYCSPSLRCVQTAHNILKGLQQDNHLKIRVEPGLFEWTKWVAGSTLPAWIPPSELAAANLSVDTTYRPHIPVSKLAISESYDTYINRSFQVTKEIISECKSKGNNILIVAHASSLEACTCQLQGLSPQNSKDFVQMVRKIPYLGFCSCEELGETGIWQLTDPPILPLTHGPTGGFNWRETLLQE

Chain of Bcr-Abl DH domain (residues 487–702) (P11274 487-702): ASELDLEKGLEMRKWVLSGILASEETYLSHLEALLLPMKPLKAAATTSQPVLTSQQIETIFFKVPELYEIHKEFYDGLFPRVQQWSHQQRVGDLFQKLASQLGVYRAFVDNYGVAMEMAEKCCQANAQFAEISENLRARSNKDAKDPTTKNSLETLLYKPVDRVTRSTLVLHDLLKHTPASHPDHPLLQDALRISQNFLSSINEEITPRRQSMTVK
Chain of Bcr-Abl p210 (from UniProt P11274) F1100E (P11274 whole entry, stated change not applied): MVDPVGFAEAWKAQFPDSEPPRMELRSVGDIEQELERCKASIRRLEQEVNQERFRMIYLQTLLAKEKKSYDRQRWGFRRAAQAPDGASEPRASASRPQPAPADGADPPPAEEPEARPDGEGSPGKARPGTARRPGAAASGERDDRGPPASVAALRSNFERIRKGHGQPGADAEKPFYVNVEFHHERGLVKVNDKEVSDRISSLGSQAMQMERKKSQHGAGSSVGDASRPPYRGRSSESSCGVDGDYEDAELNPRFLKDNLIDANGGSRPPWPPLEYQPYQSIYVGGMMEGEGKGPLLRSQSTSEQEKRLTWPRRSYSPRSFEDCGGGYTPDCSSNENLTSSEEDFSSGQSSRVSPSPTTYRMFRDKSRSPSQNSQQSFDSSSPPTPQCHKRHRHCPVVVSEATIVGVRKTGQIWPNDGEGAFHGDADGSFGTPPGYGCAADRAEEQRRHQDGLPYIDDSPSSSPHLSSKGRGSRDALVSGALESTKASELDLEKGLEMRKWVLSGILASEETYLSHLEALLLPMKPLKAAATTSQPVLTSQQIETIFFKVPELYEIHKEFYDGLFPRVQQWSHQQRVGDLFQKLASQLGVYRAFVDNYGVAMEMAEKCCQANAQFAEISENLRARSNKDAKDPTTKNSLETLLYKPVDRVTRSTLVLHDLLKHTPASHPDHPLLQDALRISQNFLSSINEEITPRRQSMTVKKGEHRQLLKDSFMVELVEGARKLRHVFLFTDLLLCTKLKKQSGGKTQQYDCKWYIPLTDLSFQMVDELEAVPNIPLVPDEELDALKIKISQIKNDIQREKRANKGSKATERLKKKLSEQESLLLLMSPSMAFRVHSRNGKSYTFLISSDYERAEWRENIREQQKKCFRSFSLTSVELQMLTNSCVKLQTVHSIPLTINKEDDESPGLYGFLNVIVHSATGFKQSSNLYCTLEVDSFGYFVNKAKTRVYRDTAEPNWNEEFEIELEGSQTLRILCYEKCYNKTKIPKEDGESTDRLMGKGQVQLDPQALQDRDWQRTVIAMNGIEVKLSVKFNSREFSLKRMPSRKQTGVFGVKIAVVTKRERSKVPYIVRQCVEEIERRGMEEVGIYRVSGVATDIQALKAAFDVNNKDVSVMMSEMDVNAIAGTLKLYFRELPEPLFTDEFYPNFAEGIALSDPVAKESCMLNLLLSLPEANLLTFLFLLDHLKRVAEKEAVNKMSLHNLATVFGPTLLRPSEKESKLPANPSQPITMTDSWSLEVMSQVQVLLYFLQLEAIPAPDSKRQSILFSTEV
Chain of Bcr-Abl p210 (from UniProt P11274) R726A; F1100E (P11274 whole entry, stated change not applied): as above
Chain of Bcr-Abl p210 (from UniProt P11274) R723A; K724A; F1100E (P11274 whole entry, stated change not applied): as above

Substance | Kd [1] | ratio to parent [2]
Cdc42 (from UniProt P60953 1-191) (enzyme) | 1900 µM | 
Bcr-Abl p210 (from UniProt P11274) F1100E |  | 0.55

More lines, now with the values ahead:

Kd [1] | ratio to parent [2] | Substance
 | 0.5 | Bcr-Abl p210 (from UniProt P11274) R726A; F1100E
600 µM |  | RhoA (from UniProt P61586 1-193) (enzyme)
 | 0.24 | Bcr-Abl p210 (from UniProt P11274) R723A; K724A; F1100E
